# Target: Recombinant human BMP10 growth factor (GF)-domain (R&D Systems) (UniProt O95393)
# Assay: SPR (Biacore)
# Details: BMP10 immobilised on a CM5 Biacore chip; parent: 1.35E+05 M-1s-1
# Chain of Recombinant human BMP10 growth factor (GF)-domain (R&D Systems) (O95393 317-424): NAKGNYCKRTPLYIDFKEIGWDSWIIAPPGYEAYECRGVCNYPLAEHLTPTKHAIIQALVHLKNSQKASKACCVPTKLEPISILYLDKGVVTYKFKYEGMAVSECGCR
substance,measurement,value
"BMPRII extracellular domain (ECD), wild type (from UniProt Q13873-1) ΔGDP (del of Gly, Asp and Pro in the A-loop)",kon,49600 M⁻¹ s⁻¹

# — paper PMC9064986
